The values below come from paper PMC10213043, “Different viral effectors suppress hormone-mediated antiviral immunity of rice coordinated by OsNPR1” (Nature Communications, 2023).

This data set concerns the molecule itself. Kind of data set: pull-down; purified proteins, 5 µg GST-OsNPR1 with 5 µg MBP-HIS-OsNPR1 or 5 µg MBP-HIS-OsCUL3a, plus 1 or 10 µg MBP-HIS-P2 (or 10 µg MBP-HIS); held on glutathione sepharose beads, 4 °C, 2 h, washed with 1x PBS.

B1: GST-OsNPR1 (natural protein)
chain: MEPPTSHVTNAFSDSDSASVEEGGADADADVEALRRLSDNLAAAFRSPEDFAFLADARIAVPGGGGGGGDLLVHRCVLSARSPFLRGVFARRAAAAAGGGGEDGGERLELRELLGGGGEEVEVGYEALRLVLDYLYSGRVGDLPKAACLCVDEDCAHVGCHPAVAFMAQVLFAASTFQVAELTNLFQRRLLDVLDKVEVDNLLLILSVANLCNKSCMKLLERCLDMVVRSNLDMITLEKSLPPDVIKQIIDARLSLGLISPENKGFPNKHVRRIHRALDSDDVELVRMLLTEGQTNLDDAFALHYAVEHCDSKITTELLDLALADVNHRNPRGYTVLHIAARRREPKIIVSLLTKGARPADVTFDGRKAVQISKRLTKQGDYFGVTEEGKPSPKDRLCIEILEQAERRDPQLGEASVSLAMAGESLRGRLLYLENRVALARIMFPMEARVAMDIAQVDGTLEFNLGSGANPPPERQRTTVDLNESPFIMKEEHLARMTALSKTVELGKRFFPRCSNVLDKIMDDETDPVSLGRDTSAEKRKRFHDLQDVLQKAFHEDKEENDRSGLSSSSSSTSIGAIRPRR
notes: also called second copy in the self-association pull-down: MBP-HIS-OsNPR1; MBP-OsNPR1; source: E. coli Rosetta (DE3), purified
B1: the binding result is “binds”.
